The data set addresses T1, RepA (ORF3) (Moraxella bovis ATCC 10900 (plasmid pMbo4.6)) (UniProt D0V0D3).
T1 sequence: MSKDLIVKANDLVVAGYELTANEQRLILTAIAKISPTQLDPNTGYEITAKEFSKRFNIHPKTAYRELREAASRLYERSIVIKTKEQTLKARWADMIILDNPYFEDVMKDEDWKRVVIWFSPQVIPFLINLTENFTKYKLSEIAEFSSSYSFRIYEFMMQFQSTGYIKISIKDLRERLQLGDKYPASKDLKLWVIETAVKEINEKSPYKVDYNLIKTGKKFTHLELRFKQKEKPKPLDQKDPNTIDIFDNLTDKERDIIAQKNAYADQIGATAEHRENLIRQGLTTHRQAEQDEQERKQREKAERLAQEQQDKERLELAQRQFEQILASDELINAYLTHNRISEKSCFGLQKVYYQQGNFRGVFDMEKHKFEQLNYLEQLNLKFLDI
The data set is described as follows: EMSA. To be noted: 10 mM Tris-HCl pH 7.5, 10 mM MgCl2, 100 mM NaCl, 0.2 mM DTT, 5% glycerol, 30 ul, 22 C 20 min; 6% PAGE 0.4x TBE at 4 C.

Consider “AAGAATTCGGGCGTGGTTTTGGGGATTGATTTTGTTTTGTCTTTTTAGCTAAAAAAACAAGAAAATTAACAAGAAAAAGAGCCAAAACCGAGTGCTTTTTCGGTTTTGGCGTTTTTTTATTTTTTTAATATATTTTTAATAGTTTTTAGACCCCCTGCAAAGCCTTATGTATCAAAGGTTTGCG (double strand) [orirep32]”, for which the binding entry is on record as “no binding”. Under “CTAGGAGGGATTGACTACCAAATAGGAGGGATTGACTACTCAAATAGGAGGGATTGACTACTCAAATAGGAGGGATTGACTACCAAATAGGAGTATTTACAATAACTCTTTTTAGGTGTATAATTAATTACTCCTTTTTTGCTAATGAGACCTAAAAATGAGCAAAGATTTAATTGTAGGATCCAA (double strand) [orirep15]” stands “binds”.

(Values after publication PMC3557383.)
